Source: patent publication US20190338048A1 (published 2019)
Read-outs that look alike come from different tables or passages of the source.

T1: His-tagged recombinant human CD-19 (human, UniProt P15391 20-291, limits assumed)
T1 sequence (looked up): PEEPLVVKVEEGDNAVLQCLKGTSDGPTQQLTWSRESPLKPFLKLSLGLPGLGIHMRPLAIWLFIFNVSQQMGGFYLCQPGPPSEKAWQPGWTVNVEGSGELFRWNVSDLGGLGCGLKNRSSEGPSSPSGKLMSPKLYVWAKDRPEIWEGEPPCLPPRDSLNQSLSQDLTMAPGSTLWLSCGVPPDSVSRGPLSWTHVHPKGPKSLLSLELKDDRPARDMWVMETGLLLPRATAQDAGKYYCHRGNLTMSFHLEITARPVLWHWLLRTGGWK

T2: His-tagged recombinant human CD-19 (human, UniProt P15391 20-291, limits assumed)
T2 sequence (looked up): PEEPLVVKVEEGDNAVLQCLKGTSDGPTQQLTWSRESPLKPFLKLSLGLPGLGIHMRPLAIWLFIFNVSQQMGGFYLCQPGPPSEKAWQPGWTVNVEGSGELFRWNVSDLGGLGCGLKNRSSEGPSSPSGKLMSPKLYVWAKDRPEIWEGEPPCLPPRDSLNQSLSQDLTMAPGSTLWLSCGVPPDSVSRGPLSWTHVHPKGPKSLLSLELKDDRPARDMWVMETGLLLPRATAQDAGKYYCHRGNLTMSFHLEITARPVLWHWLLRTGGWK


Tests used:
Assay in all cases: SPR
Recombinant human IL-17A [1] = target: T3, Recombinant human IL-17A (human, UniProt Q16552 20-155, limits assumed)
T3 sequence (Q16552 20-155 limits assumed): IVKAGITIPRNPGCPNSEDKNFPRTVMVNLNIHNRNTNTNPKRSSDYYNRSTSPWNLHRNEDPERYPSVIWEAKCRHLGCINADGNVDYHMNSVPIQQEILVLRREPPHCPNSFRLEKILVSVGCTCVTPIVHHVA

Recombinant human IL-17A [2] = target: T3, Recombinant human IL-17A; remark: listed apart in the source
Recombinant human IL-17A [3] = target: T4, Recombinant human IL-17A (human, UniProt Q16552 20-155, limits assumed); remark: listed apart in the source
T4 sequence (Q16552 20-155 limits assumed): as above

Recombinant human IL-17A [4] = target: T4, Recombinant human IL-17A; remark: listed apart in the source
[5] = target: T1, His-tagged recombinant human CD-19
[6] = target: T1, His-tagged recombinant human CD-19; remark: listed apart in the source
[7] = target: T2, His-tagged recombinant human CD-19; remark: listed apart in the source
[8] = target: T2, His-tagged recombinant human CD-19; remark: listed apart in the source

Kd (Recombinant human IL-17A [1]) | Difference in H1L1 log(KD) from wild type (Recombinant human IL-17A [2]) | Kd (Recombinant human IL-17A [3]) | Difference in H1L1 log(KD) from wild type (Recombinant human IL-17A [4]) | Kd [5] | Difference in H2L2 log(KD) from wild type [6] | Kd [7] | Difference in H2L2 log(KD) from wild type [8] | Binder
 |  | 0.45 nM | -0.08 log(KD) |  |  |  |  | Design 2994 bispecific antibody, System A (CAT-2200 H1/L1 & Pertuzumab H2/L2) (bispecific antibody) chain 1: not shown chain 2: NFMLTQPHSVSESPGKTVTISCTRSSGSLANYYVQWYQQRPGSSPTIVIFANNQRPSGVPDRFSGSIDSSSNSASLTISGLKTEDEADYYCQTYDPYSVVFGGGTKLTVLGQPKAAPSVTLFPPSSEQLQANKAKLVCLISDFYPGAVTVAWKADSSPVKAGVETTTPSKQSNNKYAASSYLSLTPEQWKSHRSYSCQVTHEGSTVEKTVAPTECS chain 3: not shown chain 4: DIQMTQSPSSLSASVGDRVTITCKASQDVSIGVAWYQQKPGKAPKLLIYSASYRYTGVPSRFSGSGSGTDFTLTISSLQPEDFATYYCQQYYIYPYTFGQGTKVEIKRTVAAPSVFIFPPSDEELKSGTASVDCLLNNFYPREAKVQWKVDNALQSGNSQESVTEQDSKDSTYSLSSTLTLSKADYEKHKVYACEVTHQGLSSPVTKSFNRGEC
 |  | 0.37 nM | -0.11 log(KD) |  |  |  |  | Design 3967 bispecific antibody, System A (CAT-2200 H1/L1 & Pertuzumab H2/L2) (bispecific antibody) chain 1: not shown chain 2: NFMLTQPHSVSESPGKTVTISCTRSSGSLANYYVQWYQQRPGSSPTIVIFANNQRPSGVPDRFSGSIDSSSNSASLTISGLKTEDEADYYCQTYDPYSVVFGGGTKLTVLGQPKAAPSVTLFPPSDEELQANTATLVCLISDFYPGAVTVAWKADSSPVKAGVETTTPSKQSNNKYAAESELSLTPEQWKSHRSYSCQVTHEGSTVEKTVAPTECS chain 3: not shown chain 4: DIQMTQSPSSLSASVGDRVTITCKASQDVSIGVAWYQQKPGKAPKLLIYSASYRYTGVPSRFSGSGSGTDFTLTISSLQPEDFATYYCQQYYIYPYTFGQGTKVEIKRTVAAPSVFIFPPKDERLKSGTASVVCLLNNFYPREAKVQWKVDNALQSGNSQESVTEQDSKDSTYSLSSRLTLSKADYEKHKVYACEVTHQGLSSPVTKSFNRGEC
 |  | 0.29 nM | 0.11 log(KD) | 54.9 nM | 0.09 log(KD) |  |  | Design 3931 bispecific antibody, System B (CAT-2200 H1/L1 & SGN-CD19a H2/L2) (bispecific antibody) chain 1: not shown chain 2: NFMLTQPHSVSESPGKTVTISCTRSSGSLANYYVQWYQQRPGSSPTIVIFANNQRPSGVPDRFSGSIDSSSNSASLTISGLKTEDEADYYCQTYDPYSVVFGGGTKLTVLGQPKAAPSVTLFPPSSEELQANKATLVCLISDFYPGAVTVAWKADSSPVKAGVETTTPSKQSNNKYAASSKLSLTPEQWKSHRSYSCQVTHEGSTVEKTVAPTECS chain 3: not shown chain 4: EIVLTQSPATLSLSPGERATLSCSASSSVSYMHWYQQKPGQAPRLLIYDTSKLASGIPARFSGSGSGTDFTLTISSLEPEDFAVYYCFQGSVYPFTFGQGTKLEIKRTVAAPSVFIFPPSDEQLKSGTASVGCLLNNFYPREAKVQWKVDNALQSGNSQESVTEQDSKDSTYSLDSTLTLSKADYEKHKVYACEVTHQGLSSPVTKSFNRGEC
 |  | 0.28 nM | 0.12 log(KD) | 49.7 nM | 0.16 log(KD) |  |  | Design 2994 bispecific antibody, System B (CAT-2200 H1/L1 & SGN-CD19a H2/L2) (bispecific antibody) chain 1: not shown chain 2: NFMLTQPHSVSESPGKTVTISCTRSSGSLANYYVQWYQQRPGSSPTIVIFANNQRPSGVPDRFSGSIDSSSNSASLTISGLKTEDEADYYCQTYDPYSVVFGGGTKLTVLGQPKAAPSVTLFPPSSEQLQANKAKLVCLISDFYPGAVTVAWKADSSPVKAGVETTTPSKQSNNKYAASSYLSLTPEQWKSHRSYSCQVTHEGSTVEKTVAPTECS chain 3: not shown chain 4: EIVLTQSPATLSLSPGERATLSCSASSSVSYMHWYQQKPGQAPRLLIYDTSKLASGIPARFSGSGSGTDFTLTISSLEPEDFAVYYCFQGSVYPFTFGQGTKLEIKRTVAAPSVFIFPPSDEELKSGTASVDCLLNNFYPREAKVQWKVDNALQSGNSQESVTEQDSKDSTYSLSSTLTLSKADYEKHKVYACEVTHQGLSSPVTKSFNRGEC
 |  | 0.44 nM | -0.07 log(KD) |  |  |  |  | Design 3931 bispecific antibody, System A (CAT-2200 H1/L1 & Pertuzumab H2/L2) (bispecific antibody) chain 1: not shown chain 2: NFMLTQPHSVSESPGKTVTISCTRSSGSLANYYVQWYQQRPGSSPTIVIFANNQRPSGVPDRFSGSIDSSSNSASLTISGLKTEDEADYYCQTYDPYSVVFGGGTKLTVLGQPKAAPSVTLFPPSSEELQANKATLVCLISDFYPGAVTVAWKADSSPVKAGVETTTPSKQSNNKYAASSKLSLTPEQWKSHRSYSCQVTHEGSTVEKTVAPTECS chain 3: not shown chain 4: DIQMTQSPSSLSASVGDRVTITCKASQDVSIGVAWYQQKPGKAPKLLIYSASYRYTGVPSRFSGSGSGTDFTLTISSLQPEDFATYYCQQYYIYPYTFGQGTKVEIKRTVAAPSVFIFPPSDEQLKSGTASVGCLLNNFYPREAKVQWKVDNALQSGNSQESVTEQDSKDSTYSLDSTLTLSKADYEKHKVYACEVTHQGLSSPVTKSFNRGEC

The next lines start with the binder.

Binder | Kd (Recombinant human IL-17A [1]) | Difference in H1L1 log(KD) from wild type (Recombinant human IL-17A [2]) | Kd (Recombinant human IL-17A [3]) | Difference in H1L1 log(KD) from wild type (Recombinant human IL-17A [4]) | Kd [5] | Difference in H2L2 log(KD) from wild type [6] | Kd [7] | Difference in H2L2 log(KD) from wild type [8]
Design 2979 bispecific antibody, System A (CAT-2200 H1/L1 & Pertuzumab H2/L2) (bispecific antibody) chain 1: not shown chain 2: NFMLTQPHSVSESPGKTVTISCTRSSGSLANYYVQWYQQRPGSSPTIVIFANNQRPSGVPDRFSGSIDSSSNSASLTISGLKTEDEADYYCQTYDPYSVVFGGGTKLTVLGQPKAAPSVTLFPPSSEELQANKATLVCLISDFYPGAVTVAWKADSSPVKAGVETTTPSKQSNNKYAAESELSLTPEQWKSHRSYSCQVTHEGSTVEKTVAPTECS chain 3: not shown chain 4: DIQMTQSPSSLSASVGDRVTITCKASQDVSIGVAWYQQKPGKAPKLLIYSASYRYTGVPSRFSGSGSGTDFTLTISSLQPEDFATYYCQQYYIYPYTFGQGTKVEIKRTVAAPSVFIFPPSDEQLKSGTARVGCLLNNFYPREAKVQWKVDNALQSGNSQESVTEQDSKDSTYSLRSTLTLSKADYEKHKVYACEVTHQGLSSPVTKSFNRGEC | 0.31 nM | -0.03 |  |  |  |  |  | 
Design 3113 bispecific antibody, System A (CAT-2200 H1/L1 & Pertuzumab H2/L2) (bispecific antibody) chain 1: not shown chain 2: NFMLTQPHSVSESPGKTVTISCTRSSGSLANYYVQWYQQRPGSSPTIVIFANNQRPSGVPDRFSGSIDSSSNSASLTISGLKTEDEADYYCQTYDPYSVVFGGGTKLTVLGQPKAAPSVTLFPPSSEELQANKATLDCLISDFYPGAVTVAWKADSSPVKAGVETTTPSKQSNNKYAASSTLSLTPEQWKSHRSYSCQVTHEGSTVEKTVAPTECS chain 3: not shown chain 4: DIQMTQSPSSLSASVGDRVTITCKASQDVSIGVAWYQQKPGKAPKLLIYSASYRYTGVPSRFSGSGSGTDFTLTISSLQPEDFATYYCQQYYIYPYTFGQGTKVEIKRTVAAPSVFIFPPSDEQLKSGTARVGCLLNNFYPREAKVQWKVDNALQSGNSQESVTEQDSKDSTYSLRSTLTLSKADYEKHKVYACEVTHQGLSSPVTKSFNRGEC | 0.39 nM | -0.14 |  |  |  |  |  | 
Design 2979 bispecific antibody, System B (CAT-2200 H1/L1 & SGN-CD19a H2/L2) (bispecific antibody) chain 1: not shown chain 2: NFMLTQPHSVSESPGKTVTISCTRSSGSLANYYVQWYQQRPGSSPTIVIFANNQRPSGVPDRFSGSIDSSSNSASLTISGLKTEDEADYYCQTYDPYSVVFGGGTKLTVLGQPKAAPSVTLFPPSSEELQANKATLVCLISDFYPGAVTVAWKADSSPVKAGVETTTPSKQSNNKYAAESELSLTPEQWKSHRSYSCQVTHEGSTVEKTVAPTECS chain 3: not shown chain 4: EIVLTQSPATLSLSPGERATLSCSASSSVSYMHWYQQKPGQAPRLLIYDTSKLASGIPARFSGSGSGTDFTLTISSLEPEDFAVYYCFQGSVYPFTFGQGTKLEIKRTVAAPSVFIFPPSDEQLKSGTARVGCLLNNFYPREAKVQWKVDNALQSGNSQESVTEQDSKDSTYSLRSTLTLSKADYEKHKVYACEVTHQGLSSPVTKSFNRGEC | 0.39 nM | -0.14 |  |  |  |  | 149 nM | 0.18
Design 3967 bispecific antibody, System B (CAT-2200 H1/L1 & SGN-CD19a H2/L2) (bispecific antibody) chain 1: not shown chain 2: NFMLTQPHSVSESPGKTVTISCTRSSGSLANYYVQWYQQRPGSSPTIVIFANNQRPSGVPDRFSGSIDSSSNSASLTISGLKTEDEADYYCQTYDPYSVVFGGGTKLTVLGQPKAAPSVTLFPPSDEELQANTATLVCLISDFYPGAVTVAWKADSSPVKAGVETTTPSKQSNNKYAAESELSLTPEQWKSHRSYSCQVTHEGSTVEKTVAPTECS chain 3: not shown chain 4: EIVLTQSPATLSLSPGERATLSCSASSSVSYMHWYQQKPGQAPRLLIYDTSKLASGIPARFSGSGSGTDFTLTISSLEPEDFAVYYCFQGSVYPFTFGQGTKLEIKRTVAAPSVFIFPPKDERLKSGTASVVCLLNNFYPREAKVQWKVDNALQSGNSQESVTEQDSKDSTYSLSSRLTLSKADYEKHKVYACEVTHQGLSSPVTKSFNRGEC |  |  | 0.38 nM | -0.13 log(KD) | 36.1 nM | 0.27 log(KD) |  | 
Design 3113 bispecific antibody, System B (CAT-2200 H1/L1 & SGN-CD19a H2/L2) (bispecific antibody) chain 1: not shown chain 2: NFMLTQPHSVSESPGKTVTISCTRSSGSLANYYVQWYQQRPGSSPTIVIFANNQRPSGVPDRFSGSIDSSSNSASLTISGLKTEDEADYYCQTYDPYSVVFGGGTKLTVLGQPKAAPSVTLFPPSSEELQANKATLDCLISDFYPGAVTVAWKADSSPVKAGVETTTPSKQSNNKYAASSTLSLTPEQWKSHRSYSCQVTHEGSTVEKTVAPTECS chain 3: not shown chain 4: EIVLTQSPATLSLSPGERATLSCSASSSVSYMHWYQQKPGQAPRLLIYDTSKLASGIPARFSGSGSGTDFTLTISSLEPEDFAVYYCFQGSVYPFTFGQGTKLEIKRTVAAPSVFIFPPSDEQLKSGTARVGCLLNNFYPREAKVQWKVDNALQSGNSQESVTEQDSKDSTYSLRSTLTLSKADYEKHKVYACEVTHQGLSSPVTKSFNRGEC | 0.44 nM | -0.2 |  |  |  |  | 216 nM | 0.02
